Data from paper PMC8565349 (Nucleic Acids Research, 2021).

T1: purified S. aureus β-clamp (ITC sample) (S. aureus, UniProt P0A024 1-377)
T1 sequence: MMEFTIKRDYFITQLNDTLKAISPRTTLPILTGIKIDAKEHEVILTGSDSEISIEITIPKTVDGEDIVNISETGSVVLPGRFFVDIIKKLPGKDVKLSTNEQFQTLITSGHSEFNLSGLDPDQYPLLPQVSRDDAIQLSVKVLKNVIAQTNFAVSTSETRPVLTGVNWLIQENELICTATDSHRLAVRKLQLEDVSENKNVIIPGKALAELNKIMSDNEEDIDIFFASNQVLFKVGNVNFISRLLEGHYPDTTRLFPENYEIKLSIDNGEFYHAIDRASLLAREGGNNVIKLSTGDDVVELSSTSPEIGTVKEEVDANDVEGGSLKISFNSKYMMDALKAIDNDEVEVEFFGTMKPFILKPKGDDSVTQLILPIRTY


Legend:
cryo-EM structure = biological target: the molecule itself; assay: cryo-EM structure
[1] = biological target: T1, purified S. aureus β-clamp (ITC sample); assay: ITC
SEC-MALS = biological target: the molecule itself; assay: SEC-MALS
SEC = biological target: the molecule itself; assay: SEC

| Binder | stoichiometry N (cryo-EM structure) | Kd [1] [nM] | stoichiometry N [1] | stoichiometry N (SEC-MALS) | stoichiometry N (SEC) |
| --- | --- | --- | --- | --- | --- |
| polyhistidine-tagged Gp168 of bacteriophage Twort (natural protein) MLFFKEKFYNELSYYRGGHKDLESMFELALEYIEKLEEEDEQQVTDYENAMEEELRDAVDVIESQLEIIKDIVR | 2 | 95 ± 16.7 | 0.16 ± 0.003 | 6 |  |
| polyhistidine-tagged Gp168 Y14A (natural protein, bacteriophage Twort) MLFFKEKFYNELSAYRGGHKDLESMFELALEYIEKLEEEDEQQVTDYENAMEEELRDAVDVIESQLEIIKDIVR |  |  |  |  | 6 |
